{
  "source": "patent US7935343B2",
  "key": {"[1]": {"biological_target": "native human IL-13 released from HDLM-2 cells (human)"}, "human IL-13 (human) [2]": {"biological_target": "human IL-13 (human)"}, "human IL-13 (human) [3]": {"biological_target": "human IL-13 (human)", "remark": "listed apart in the source"}, "[4]": {"biological_target": "human IL-13 variant (Q130R) with carboxyl terminus affinity tag (baculovirus expression) (human)", "sequence (chain, as listed by the source Q130R Q130R)": "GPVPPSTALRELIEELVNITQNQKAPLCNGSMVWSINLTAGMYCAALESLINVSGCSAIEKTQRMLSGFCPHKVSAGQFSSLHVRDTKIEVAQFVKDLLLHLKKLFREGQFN"}, "[5]": {"biological_target": "non-human primate IL-13 (rhesus and cynomolgus, identical) with carboxyl terminus affinity tag (cynomolgus and rhesus monkey)", "sequence (chain, as listed by the source)": "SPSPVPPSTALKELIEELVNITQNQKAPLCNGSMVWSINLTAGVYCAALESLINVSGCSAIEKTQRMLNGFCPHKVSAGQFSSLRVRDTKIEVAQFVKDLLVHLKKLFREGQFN"}},
  "data": [
    {"substance": "JES10-5A2 (rat IgG1, Biosource) (antibody)", "values": [
      {"measurement": "IC50, HDLM-2 cell proliferation", "setting": "[1]", "value": 10.7, "unit": "nM"},
      {"measurement": "IC50, eotaxin release from NHLF", "setting": "human IL-13 (human) [2]", "value": 623, "unit": "pM"},
      {"measurement": "IC50, TF-1 proliferation", "setting": "human IL-13 (human) [3]", "value": 471, "unit": "pM"}
    ]},
    {"substance": "BAK502G9 IgG4 (antibody)", "values": [
      {"measurement": "IC50, TF-1 cell proliferation", "setting": "[4]", "value": 1.9, "unit": "nM"},
      {"measurement": "IC50, TF-1 cell proliferation", "setting": "[5]", "value": 2, "unit": "nM"}
    ]},
    {"substance": "B-B13 (mouse IgG1, Euroclone) (antibody)", "values": [
      {"measurement": "IC50, HDLM-2 cell proliferation", "setting": "[1]", "value": 16.7, "unit": "nM"},
      {"measurement": "IC50, eotaxin release from NHLF", "setting": "human IL-13 (human) [2]", "value": 219, "unit": "pM"},
      {"measurement": "IC50, TF-1 proliferation", "setting": "human IL-13 (human) [3]", "value": 1020, "unit": "pM"}
    ]}
  ]
}
